Experimental data published in patent US20190085083A1 (BRIGHAM AND WOMEN S HOSPITAL, published 2019).

Molecular target: T1, hKLRG1 (human KLRG1), plate-coated, Example 21 (human, UniProt Q96E93 60-195, limits assumed)
T1 construct: also called plate-coated KLRG1
T1 sequence (looked up): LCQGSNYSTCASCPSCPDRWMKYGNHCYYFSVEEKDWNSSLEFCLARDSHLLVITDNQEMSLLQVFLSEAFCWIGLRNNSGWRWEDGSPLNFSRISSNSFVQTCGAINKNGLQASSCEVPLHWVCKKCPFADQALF
Assay: ELISA, soluble hE-cadherin on plate-coated hKLRG1
Excerpt: An ELISA based KLRG1/E-cadherin competition assay was developed to measure KLRG1/E-cadherin binding as well as neutralization of KLRG1/E-cadherin binding.
FIG. 23 presents the results of soluble hE-cadherin binding to plate-coated hKLRG1.

EC50: 25 nM
B1: soluble recombinant human E-cadherin (ligand)
chain: DWVIPPISCPENEKGPFPKNLVQIKSNKDKEGKVFYSITGQGADTPPVGVFIIERETGWLKVTEPLDRERIATYTLFSHAVSSNGNAVEDPMEILITVTDQNDNKPEFTQEVFKGSVMEGALPGTSVMEVTATDADDDVNTYNAAIAYTILSQDPELPDKNMFTINRNTGVISVVTTGLDRESFPTYTLVVQAADLQGEGLSTTATAVITVTDTNDNPPIFNPTTYKGQVPENEANVVITTLKVTDADAPNTPAWEAVYTILNDDGGQFVVTTNPVNNDGILKTAKGLDFEAKQQYILHVAVTNVVPFEVSLTTSTATVTVDVLDVNEAPIFVPPEKRVEVSEDFGVGQEITSYTAQEPDTFMEQKITYRIWRDTANWLEINPDTGAISTRAELDREDFEHVKNSTYTALIIATDNGSPVATGTGTLLLILSDVNDNAPIPEPRTIFFCERNPKPQVINIIDADLPPNTSPFTAELTHGASANWTIQYNDPTQESIILKPKMALEVGDYKINLKLMDNQNKDQVTTLEVSVCDCEGAAGVCRKAQPVEAGLQIPA
notes: also called hE-cadherin; soluble E-cadherin
